{"source": "patent US20220090139A1", "key": {"[1]": {"target": "10-amber 13-amber hoc-del soc-del T4 heads (bacteriophage T4) (UniProt P04535)"}, "[2]": {"target": "10-amber 13-amber hoc-del soc-del T4 heads (bacteriophage T4) (UniProt P04535)", "experiment": "Soc-TAT displayed on T4(Luci) heads used for transduction (FIG. 28)"}, "[3]": {"target": "10-amber 13-amber hoc-del soc-del T4 heads (bacteriophage T4) (UniProt P04535)", "experiment": "display titration on T4 heads, SDS-PAGE (FIG. 21)"}, "[4]": {"target": "10-amber 13-amber hoc-del soc-del T4 heads (bacteriophage T4) (UniProt P04535)", "experiment": "co-display with Cas9-gRNA RNP on the same T4 head"}, "[5]": {"target": "10-amber 13-amber hoc-del soc-del T4 heads (bacteriophage T4) (UniProt P04535)", "experiment": "display titration on T4 heads, SDS-PAGE (FIG. 20)"}, "[6]": {"target": "10-amber 13-amber hoc-del soc-del T4 heads (bacteriophage T4) (UniProt P04535)", "experiment": "display on T4 heads, copies per capsid compared"}, "[7]": {"target": "10-amber 13-amber hoc-del soc-del T4 heads (bacteriophage T4) (UniProt P04535)", "experiment": "in vitro display on T4 heads, pelleting, SDS-PAGE densitometry against gp23* (930 copies)"}, "[8]": {"target": "10-amber 13-amber hoc-del soc-del T4 heads (bacteriophage T4) (UniProt P04535)", "experiment": "display of RNP on T4 heads through Soc"}, "[9]": {"target": "10-amber 13-amber hoc-del soc-del T4 heads (bacteriophage T4) (UniProt P04535)", "experiment": "co-display with Cre-Hoc on the same T4 head"}}, "note": "Where two headings read alike, the source gives them in different places."}
{"substance": "Soc-TAT (from UniProt P03715 1-80)", "values": [{"measurement": "Copies/capsid (copies per capsid)", "setting": "[1]", "value": 750}, {"measurement": "copies per capsid (copies per capsid)", "setting": "[2]", "value": 520}]}
{"substance": "Cre-Hoc (enzyme)", "values": [{"measurement": "Copies/capsid (copies per capsid)", "setting": "[1]", "value": 95}, {"measurement": "ratio of protein molecules to binding sites at saturation (molecules per binding site)", "setting": "[3]", "value": "15 to 20"}, {"measurement": "copies per capsid (molecules per AV)", "setting": "[4]", "value": 50}]}
{"substance": "β-Gal-Soc (from UniProt P00722 1-1024; P03715 1-80) (enzyme)", "values": [{"measurement": "Copies/capsid (copies per capsid)", "setting": "[1]", "value": 320}, {"measurement": "ratio of protein molecules to binding sites at saturation (molecules per binding site)", "setting": "[5]", "value": "15 to 20"}]}
{"substance": "RGD-Hoc (from UniProt P18056 1-376)", "values": [{"measurement": "Copies/capsid (copies per capsid)", "setting": "[1]", "value": 85}]}
{"substance": "Soc-RGD (from UniProt P03715 1-80)", "values": [{"measurement": "Copies/capsid (copies per capsid)", "setting": "[1]", "value": 710}, {"measurement": "fold copy number against RGD-Hoc", "setting": "[6]", "value": 8.3, "unit": "fold"}]}
{"substance": "Cre-Soc (enzyme)", "values": [{"measurement": "Copies/capsid (copies per capsid)", "setting": "[1]", "value": 630}]}
{"substance": "NLS-Cas9-Soc (from UniProt Q99ZW2 1-1368) (enzyme)", "values": [{"measurement": "Copies/capsid (copies per capsid)", "setting": "[1]", "value": 550}]}
{"substance": "GFP-Soc (from UniProt P03715 1-80)", "values": [{"measurement": "Copies/capsid (copies per capsid)", "setting": "[1]", "value": 660}]}
{"substance": "Cpf1-Soc (enzyme)", "values": [{"measurement": "Copies/capsid (copies per capsid)", "setting": "[7]", "value": 450}]}
{"substance": "Cas9-gRNA ribonucleoprotein (RNP) complex fused to Soc (from UniProt Q99ZW2 1-1368)", "values": [{"measurement": "copies per capsid (copies per capsid)", "setting": "[8]", "value": 280}, {"measurement": "copies per capsid (molecules per AV)", "setting": "[9]", "value": 270}]}
